Assay results taken from US20230039279.

Key:
[1] = system: MMP-9 sensitive peptide (GPRSLSG-RRCG) linked ibuprofen
[2] = system: MMP-9 peptide substrate M2, GRCR-GPRSLSG-RCRG
[3] = system: cleavable peptide (1) GCRR-KGPRSLSGK-RRCG
[4] = system: non-cleavable scrambled peptide GCRR-KSSRGGPLK-RRCG
[5] = system: peptide (3), crosslinker based on substrate AVRWLLTA

Chain of matrix-metalloprotease-9 (MMP-9), 83 kDa, Merck (chain, as listed by the source): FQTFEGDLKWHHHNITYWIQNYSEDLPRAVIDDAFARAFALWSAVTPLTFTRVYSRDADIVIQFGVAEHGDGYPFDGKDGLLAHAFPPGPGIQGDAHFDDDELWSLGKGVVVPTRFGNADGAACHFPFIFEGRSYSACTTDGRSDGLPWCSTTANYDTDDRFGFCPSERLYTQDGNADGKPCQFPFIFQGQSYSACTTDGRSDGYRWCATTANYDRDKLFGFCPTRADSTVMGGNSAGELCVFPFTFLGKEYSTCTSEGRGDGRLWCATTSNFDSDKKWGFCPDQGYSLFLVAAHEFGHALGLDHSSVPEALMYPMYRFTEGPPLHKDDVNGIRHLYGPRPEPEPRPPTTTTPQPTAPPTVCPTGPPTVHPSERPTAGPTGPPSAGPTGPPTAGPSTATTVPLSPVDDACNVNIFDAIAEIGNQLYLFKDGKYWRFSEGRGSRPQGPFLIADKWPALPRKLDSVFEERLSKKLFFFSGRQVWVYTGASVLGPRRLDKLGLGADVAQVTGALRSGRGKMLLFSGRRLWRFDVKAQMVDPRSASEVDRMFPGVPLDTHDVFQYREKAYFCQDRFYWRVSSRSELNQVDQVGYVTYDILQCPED

Substance	specificity of protease-triggered ibuprofen liberation (FIG. 10B) [1]	degradation of H2-M2 combinational hydrogel and release of PLGA particles over 24 hours [2]	ultimate cumulative drug release at 48 hours from the dual-responsive conjugate hydrogel, MMP-9 alone (2 µg/ml) [1]	cleavability of hybrid hydrogel (release of PLGA particles into the medium after 20 h with 3 µg/ml MMP-9) [3]	cumulative drug release from GEL-iP after 4 hours with 3 µg/ml MMP-9 [3]	LC-MS detection of the liberated fragment in the supernatant after 2 days of hydrogel exposure to MMP9 solution (ibu-GPQGIWGQ-DRCG)	cumulative drug release from scrGEL-iP after 4 hours with 3 µg/ml MMP-9 [4]	cleavability of hybrid hydrogel (release of PLGA particles into the medium after 20 h with 3 µg/ml MMP-9) (peptide (2))	cleavability of hybrid hydrogel (release of PLGA particles into the medium after 20 h with 3 µg/ml MMP-9) [5]	cleavability of hybrid hydrogel (release of PLGA particles into the medium after 20 h with 3 µg/ml MMP-9) (peptide (4))	cleavability of hybrid hydrogel (release of PLGA particles into the medium after 20 h with 3 µg/ml MMP-9) (peptide (5))	cleavability of hybrid hydrogel (release of PLGA particles into the medium after 20 h with 3 µg/ml MMP-9) (peptide (6))	cleavability of hybrid hydrogel (release of PLGA particles into the medium after 20 h with 3 µg/ml MMP-9) (peptide (7))
cathepsin B	the peptide sequence, GPRSLSGRRCG (SEQ ID NO: 20), as a spacer illustrated a good specificity toward MMP-9 compared to cathepsin B and human neutrophil elastase (HNE)	–	–	–	–	–	–	–	–	–	–	–	–
matrix-metalloprotease-9 (MMP-9), 83 kDa, Merck	the peptide sequence, GPRSLSGRRCG (SEQ ID NO: 20), as a spacer illustrated a good specificity toward MMP-9 compared to cathepsin B and human neutrophil elastase (HNE)	H2 and M2 peptide substrates were preferentially cleaved by HNE and MMP-9 proteases respectively	the ultimate cumulative release achieved 71%	hybrid hydrogels crosslinked with peptides (1), (4), (5) and (7) could be digested by MMP-9	exposing GEL-iP to MMP-9 for 4 hours significantly boosted the cumulative drug release to 100% compared to only 25% in the absence of MMP-9	LC-MS analysis confirmed the presence of the liberated ibuprofen bearing fragment (ibu-GPQG, LC peak at elution time of 14.6 min, MS peak at m/z=546.20)	only 40% was released from the hybrid hydrogel crosslinked by the scrambled peptide (scrGEL-iP) at the same condition	hydrogels formed with peptides (2), (3), and (6) were not cleaved upon exposure to MMP-9	hydrogels formed with peptides (2), (3), and (6) were not cleaved upon exposure to MMP-9	hybrid hydrogels crosslinked with peptides (1), (4), (5) and (7) could be digested by MMP-9	hybrid hydrogels crosslinked with peptides (1), (4), (5) and (7) could be digested by MMP-9	hydrogels formed with peptides (2), (3), and (6) were not cleaved upon exposure to MMP-9	hybrid hydrogels crosslinked with peptides (1), (4), (5) and (7) could be digested by MMP-9
